Values of other authors as cited in paper PMC8002405.

Target: Human neonatal Fc receptor (hFcRn) (UniProt P55899+P61769)
Assay: microscale thermophoresis (MST)
Conditions: pH 5.5

Human IgG1 (wild type)
KD: 900 nM
